Measurements from US20140086904A1 (CHENGDU KANGHONG BIOTECHNOLOGIES, published 2014).

Assays:
[1] = target: T1, human tumor necrosis factor-α (R & D Co., Catalog Number: 210-TA-050) (human, UniProt P01375 77-233); assay: cell-based or functional assay
[2] = target: T1, human tumor necrosis factor-α (R & D …); assay: BLI, Octet RED 96, biotin-hTNF-α on streptavidin sensor, antibody in solution
Protocol: hTNF-α (R & D Co., 210-TA-050) and NHS-LCLC-biotin (Catalog Number: 21338, purchased from Thermo-fisher Co.,) were mixed uniformly at a molar ratio of 1:3 and kept at room temperature for 1 hour. Then, the remaining NHS-LCLC-biotin was removed by a PD-10 desalting column (Catalog Number: 17-0851-01, purchased from GE Co.,). The final conjugate products obtained were 50 μg/ml of biotin-hTNF-α.

[3] = target: T1, human tumor necrosis factor-α (R & D …); assay: cell-based or functional assay; remark: listed apart in the source
[4] = target: T1, human tumor necrosis factor-α (R & D …); assay: ELISA, plate coated with human TNF-α, Fab titrated, anti-human C-Kappa-HRP

T1 sequence (P01375 77-233 limits assumed): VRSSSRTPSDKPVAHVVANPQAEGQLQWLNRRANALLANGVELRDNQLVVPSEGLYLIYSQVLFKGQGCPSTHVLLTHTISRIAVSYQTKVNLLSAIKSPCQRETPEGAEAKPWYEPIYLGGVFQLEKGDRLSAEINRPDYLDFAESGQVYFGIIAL

| Binder | EC50, L929 cytotoxicity experiment [1] [nM] | further results |
| --- | --- | --- |
| KS04 (antibody, human IgG1, kappa, V domains shown) VH: QVQLVESGGGLVKPGGSLRLSCAASGFTFSNAWMNWVRQAPGKGLEWVAEIRSKSINSATHYAESVKGRFTISRDNSKKTLYLEMNSLRVEDTAVYYCSRNYYGSTYDYWGQGTTLTVSS VL: EIVLTQSPDFQSVTPKEKVTITCRASQSIYSSLHWYQQKPDQSPKLLIKFASQSVSGVPSRFSGSGSGTDFTLTINSLEAEDAATYYCQQSHSWPFTFGSGTNVDIKR | 0.126 |  |
| KS10 (Glu) (antibody, V domains shown, Full-length IgG1 from CHO cells; VH SH01 with the first amino acid Glu, VK SH08) VH: EVQLVESGGGLVKPGGSLRLSCAASGFTFSNAWMNWVRQAPGKGLEWVAEIRSKSINSATHYAESVKGRFTISRDDSKNTVYLQMNSLKTEDTAVYYCSRNYYGSTYDYWGQGTTLTVSS VL: EIVLTQSPDFQSVTPKEKVTITCRASQSIYSSLHWYQQKPDQSPKLLIKFASQSVSGVPSRFSGSGSGTDFTLTINSLEAEDAATYYCQQSHWWPFTFGSGTNVDIKR | 0.028 | Kd [2]: 0.00218 nM; koff [2]: 1.02e-07 s⁻¹; kon [2]: 46900 M⁻¹ s⁻¹ |
| KS07 (antibody, human IgG1, kappa, V domains shown) VH: QVQLVESGGGLVKPGGSLRLSCAASGFTFSNAWMNWVRQAPGKGLEWVAEIRSKSINSATHYAESVKGRFTISRDNSKKTLYLEMNSLRVEDTAVYYCSRNYYGSTYDYWGQGTTLTVSS VL: EIVLTQSPDFQSVTPKEKVTITCRASQSIYSSLHWYQQKPDQSPKLLIKFASQSVSGVPSRFSGSGSGTDFTLTINSLEAEDAATYYCQQSHFWPFTFGSGTNVDIKR | 0.1 |  |
| KS-2E (Fab, V domains shown, Humanized Fab (heavy chain Fd fragment and light chain), expressed in E. coli periplasm) VH: QVQLVESGGGLVKPGGSLRLSCAASGFTFSNAWMNWVRQAPGKGLEWVAEIRSKSINSATHYAESVKGRFTISRDNSKKTLYLEMNSLRVEDTAVYYCSRNYYGSTYQYWGQGTTLTVSS VL: EIVLTQSPDFQSVSPKETVTITCRASQTVHMSLHWYQQKPNQSPRLLIKYGSQSFSGVPSRFSGSGSGTDFTLTINSLEPEDAATYYCQQSHKWPFTFGSGTNVDIKR |  | EC50 (read off the curve); L929 cytotoxicity assay, inhibition rate (%) [3]: ~4 nM; EC50 [4]: 6.66 nM |
| KS08 (antibody, human IgG1, kappa, V domains shown) VH: QVQLVESGGGLVKPGGSLRLSCAASGFTFSNAWMNWVRQAPGKGLEWVAEIRSKSINSATHYAESVKGRFTISRDNSKKTLYLEMNSLRVEDTAVYYCSRNYYGSTYDYWGQGTTLTVSS VL: EIVLTQSPDFQSVSPKETVTITCRASQTVHMSLHWYQQKPNQSPRLLIKYGSQSFSGVPSRFSGSGSGTDFTLTINSLEPEDAATYYCQQSHFWPFTFGSGTNVDIKR | 0.113 |  |
| KS02 (antibody, human IgG1, kappa, V domains shown) VH: QVQLVESGGGLVKPGGSLRLSCAASGFTFSNAWMNWVRQAPGKGLEWVAEIRSKSINSATHYAESVKGRFTISRDNSKKTLYLEMNSLRVEDTAVYYCSRNYYGSTYDYWGQGTTLTVSS VL: EIVLTQSPDFQSVSPKETVTITCRASQTVHMSLHWYQQKPNQSPRLLIKYGSQSFSGVPSRFSGSGSGTDFTLTINSLEPEDAATYYCQQSHSWPFTFGSGTNVDIKR | 0.109 |  |
| KS11 (antibody, human IgG1, kappa, V domains shown) VH: QVQLVESGGGLVKPGGSLRLSCAASGFTFSNAWMNWVRQAPGKGLEWVAEIRSKSINSATHYAESVKGRFTISRDNSKKTLYLEMNSLRVEDTAVYYCSRNYYGSTYDYWGQGTTLTVSS VL: EIVLTQSPDFQSVSPKETVTITCRASQTVHMSLHWYQQKPNQSPRLLIKYGSQSFSGVPSRFSGSGSGTDFTLTINSLEPEDAATYYCQQSHWWPFTFGSGTNVDIKR | 0.059 |  |
| KS12 (antibody, human IgG1, kappa, V domains shown) VH: QVQLVESGGGLVKPGGSLRLSCAASGFTFSNAWMNWVRQAPGKGLEWVAEIRSKSINSATHYAESVKGRFTISRDNSKKTLYLEMNSLRVEDTAVYYCSRNYYGSTYDYWGQGTTLTVSS VL: EIVLTQSPDFQSVTPKEKVTITCRASQSIYSSLHWYQQKPDQSPKLLIKFASQSVSGVPSRFSGSGSGTDFTLTINSLEAEDAATYYCQQSHWWPFTFGSGTNVDIKR | 0.136 |  |
